Measurements from patent publication US20210079400A1 (CZ BIOHUB SF, published 2021).

Molecular target: T1, BMPR2 (human, on breast cancer cells) (human, UniProt Q13873 27-1038)
T1 construct: whole, on cells; The PDX cells are described as human breast tumor cells; also called BMP Receptor 2
T1 sequence (looked up): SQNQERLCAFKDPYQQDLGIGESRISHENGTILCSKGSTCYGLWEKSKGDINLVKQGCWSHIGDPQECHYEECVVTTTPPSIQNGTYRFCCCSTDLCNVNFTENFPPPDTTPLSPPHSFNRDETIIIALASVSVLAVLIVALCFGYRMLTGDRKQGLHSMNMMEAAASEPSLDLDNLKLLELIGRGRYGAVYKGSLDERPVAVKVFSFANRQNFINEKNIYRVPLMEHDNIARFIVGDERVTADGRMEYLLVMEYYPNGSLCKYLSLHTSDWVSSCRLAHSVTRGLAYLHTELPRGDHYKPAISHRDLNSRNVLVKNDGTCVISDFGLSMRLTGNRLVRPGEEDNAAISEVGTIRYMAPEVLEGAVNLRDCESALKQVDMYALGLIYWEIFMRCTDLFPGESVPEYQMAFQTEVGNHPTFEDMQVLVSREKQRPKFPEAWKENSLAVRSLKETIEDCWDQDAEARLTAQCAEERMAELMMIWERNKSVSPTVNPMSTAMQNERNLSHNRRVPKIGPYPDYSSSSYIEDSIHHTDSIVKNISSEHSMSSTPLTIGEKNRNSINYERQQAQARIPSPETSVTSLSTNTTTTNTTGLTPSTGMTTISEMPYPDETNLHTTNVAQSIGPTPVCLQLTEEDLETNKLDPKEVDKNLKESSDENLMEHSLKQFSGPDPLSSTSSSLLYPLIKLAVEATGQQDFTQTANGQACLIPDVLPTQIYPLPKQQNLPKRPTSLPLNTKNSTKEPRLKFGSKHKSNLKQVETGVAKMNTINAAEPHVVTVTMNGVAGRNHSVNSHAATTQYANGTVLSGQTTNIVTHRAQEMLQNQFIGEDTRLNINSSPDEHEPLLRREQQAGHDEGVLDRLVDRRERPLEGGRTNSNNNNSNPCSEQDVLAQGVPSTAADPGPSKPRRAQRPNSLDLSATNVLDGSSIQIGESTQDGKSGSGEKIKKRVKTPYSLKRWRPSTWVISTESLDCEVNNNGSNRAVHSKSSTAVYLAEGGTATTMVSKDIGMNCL
Experiment: Proximity Ligation on sorted breast cancer PDX cells
Text: Next, we examined the interaction of LEFTY-BMPR2 and BMP7-BMPR2 in different subpopulations of breast cancer cells. Tumor cells were isolated from 3 established breast cancer PDXs using flow cytometry. These models were characterized to follow the cancer stem cell paradigm. The cells were sorted based on EpCAM and CD49f cell surface markers. Different protein-protein interactions were quantified by Proximity Ligation and the cells were also simultaneously stained for pSMAD2 or pSMAD5. As shown in FIGS. 14A-14D, in the tumorigenic population the LEFTY-BMPR2 interaction is predominant, whereas the BMP7-BMPR2 interaction is predominant in non-tumorigenic population.

binding result: binds
B1: BMP7 (human, endogenous in breast cancer PDX cells) (ligand, UniProt P18075 293-431, looked up)
chain: STGSKQRSQNRSKTPKNQEALRMANVAENSSSDQRQACKKHELYVSFRDLGWQDWIIAPEGYAAYYCEGECAFPLNSYMNATNHAIVQTLVHFINPETVPKPCCAPTQLNAISVLYFDDSSNVILKKYRNMVVRACGCH
